Where “and” joins values, the source holds several entries; their conditions need not be identical. Equal values may be shown once. Bounds are passed on as bounds.

Assay [1] has as its target high-affinity cell surface thrombin receptor on mouse embryo (ME) cells (mouse) (UniProt P30558). Briefly: competition with [^125I]-alpha-thrombin (1 nM) for specific binding to quiescent ME cells, 23 C.
The target is the same in assay [2]. Description: competition with [^125I]-alpha-thrombin (1 nM) on quiescent ME cells; at 40 nM peptide.
For assay [3] the target is unchanged. Briefly: cell-based or functional assay.
Assay [4] has as its target high-affinity cell surface thrombin receptor on NIL cells (hamster fibroblasts) (hamster). Briefly: cell-based or functional assay.
The target of assay [5] is high-affinity cell surface thrombin receptor on mouse embryo (ME) cells (mouse) (UniProt P30558). Description: competition with [^125I]-alpha-thrombin (1 nM) on quiescent ME cells.
For assay [6] the target is unchanged. Briefly: Scatchard analysis of direct binding of [^125I]-labelled peptide to cells (data not shown).
For assay [7] the target is unchanged. Briefly: competition with 0.3 nM [^125I]-alpha-thrombin on ME cells; p508-530 from 8 to 4000 nM.
The target is the same in assay [8]. Briefly: competition with [^125I]-alpha-thrombin on ME cells; reference p508-530.
Assay [9] has the same target. Briefly: competition with [^125I]-alpha-thrombin (1 nM) on quiescent ME cells; at 800 nM peptide.
Assay [10] shares this target. Description: competition with [^125I]-alpha-thrombin on ME cells.

In assay [1], “synthetic peptide p508-530 (residues 508 to 530 of human prothrombin)” yielded a Concentration Required for 30% Inhibition of 6 nM. Also, the Maximal % Inhibition in [2] is 78%. Moreover, in [3], the concentration of p508-530 at which stimulation of ME cells was observed is 12.5 nM and 100 nM; the increase in incorporation of [^3H]-thymidine into DNA in ME cells, 0.1 uM p508-530 with 2 nM alpha-thrombin, against cultures treated with alpha-thrombin alone was above 2 fold; the increase in incorporation of [^3H]-thymidine into DNA in ME cells, 0.1 uM p508-530 with 2 nM alpha-thrombin, against untreated cultures turned out to be 6 fold. Moreover, the increase in DNA synthesis over controls in NIL cells in the presence of 25 ng/ml PMA in assay [4] was found to be 3.5 fold. In addition, in assay [5], the concentration at Maximal % Inhibition was 40 nM. The Kd in assay [6] amounted to 60 nM. In assay [7], this substance returned a percent of specific [^125I]-alpha-thrombin binding competed of 30 to 70%.

The substance “synthetic peptide p519-530 (residues 519 to 530 of the B-chain region of human prothrombin)” showed a Concentration Required for 30% Inhibition in assay [1] of 200 nM. In assay [8], the fold higher concentration for 30% inhibition than p508-530 is 33 fold. In assay [5], this substance returned a concentration at Maximal % Inhibition of 800 nM. Further, the Maximal % Inhibition in [9] came out at 51%. In assay [10], this substance displayed a percent of [^125I]-alpha-thrombin binding competed of 30 to 50%.

The Kd is the equilibrium constant for the complex coming apart. The low end stands for higher affinity, the high end for lower affinity.
